Measured values from paper doi:10.1101/2025.02.25.640118 (bioRxiv, 2025).
Blank lines part the entries; values can stand above or below the molecule they belong to.

Legend:
[1] = molecular target: MsyB (Escherichia coli protein MsyB) (E. coli) (UniProt P25738); assay: BLI
[2] = molecular target: MsyB (Escherichia coli protein MsyB) (E. coli) (UniProt P25738); assay: SEC
[3] = molecular target: β-clamp (β subunit of DNA polymerase) (E. coli, UniProt P0A988 1-366); assay: BLI
[4] = molecular target: T1, IHF (E. coli, UniProt P0A6X7 1-99; P0A6Y1 1-94)
T1 sequence (looked up) 1: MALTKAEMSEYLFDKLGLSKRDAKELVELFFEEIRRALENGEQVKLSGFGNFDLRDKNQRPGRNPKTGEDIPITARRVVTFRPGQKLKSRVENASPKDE
T1 sequence (looked up) 2: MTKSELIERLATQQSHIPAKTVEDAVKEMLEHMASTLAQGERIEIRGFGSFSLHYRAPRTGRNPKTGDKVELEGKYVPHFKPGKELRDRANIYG

[5] = molecular target: T2, HUαβ (E. coli, UniProt P0ACF0 1-90; P0ACF4 1-90); assay: BLI
T2 sequence (looked up) 1: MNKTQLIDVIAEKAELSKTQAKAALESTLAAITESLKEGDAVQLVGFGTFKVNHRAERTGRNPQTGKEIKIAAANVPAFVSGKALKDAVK
T2 sequence (looked up) 2: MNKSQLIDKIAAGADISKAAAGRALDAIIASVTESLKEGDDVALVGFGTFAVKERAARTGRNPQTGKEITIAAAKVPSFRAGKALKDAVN

[6] = molecular target: HUαα (HU alpha homodimer) (Escherichia coli, UniProt P0ACF0 1-90); assay: EMSA

Sequence of β-clamp (β subunit of DNA polymerase) (P0A988 whole entry): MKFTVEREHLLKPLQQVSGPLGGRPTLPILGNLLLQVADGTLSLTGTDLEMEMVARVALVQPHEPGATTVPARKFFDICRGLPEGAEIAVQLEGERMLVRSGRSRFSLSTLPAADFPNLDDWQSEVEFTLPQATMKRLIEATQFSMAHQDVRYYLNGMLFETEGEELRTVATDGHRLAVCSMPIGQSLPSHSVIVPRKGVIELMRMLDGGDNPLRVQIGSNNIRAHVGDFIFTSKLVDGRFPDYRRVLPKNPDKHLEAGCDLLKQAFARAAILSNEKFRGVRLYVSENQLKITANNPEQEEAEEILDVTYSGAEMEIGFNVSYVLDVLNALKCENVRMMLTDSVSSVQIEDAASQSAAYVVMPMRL

Kd [1]: 4.88 nM
stoichiometry N [2]: 1
Molecule: HUαα (from UniProt P0ACF0 1-90) (natural protein)

Kd [1]: 700 nM
Molecule: β-clamp (β subunit of DNA polymerase) (from UniProt P0A988 1-366) (natural protein)

Kd [3]: 500 nM
B1: HUαα-MsyB complex (complex, E. coli)
chain 1: MNKTQLIDVIAEKAELSKTQAKAALESTLAAITESLKEGDAVQLVGFGTFKVNHRAERTGRNPQTGKEIKIAAANVPAFVSGKALKDAVK
chain 2: MTMYATLEEAIDAAREEFLADNPGIDAEDANVQQFNAQKYVLQDGDIMWQVEFFADEGEEGECLPMLSGEAAQSVFDGDYDEIEIRQEWQEENTLHEWDEGEFQLEPPLDTEEGRAAADEWDER

Kd [4]: 95 nM
Kd [5]: 3.22 nM
B2: MsyB (Escherichia coli protein MsyB) (natural protein, E. coli, UniProt P25738 1-124, looked up)
chain: MTMYATLEEAIDAAREEFLADNPGIDAEDANVQQFNAQKYVLQDGDIMWQVEFFADEGEEGECLPMLSGEAAQSVFDGDYDEIEIRQEWQEENTLHEWDEGEFQLEPPLDTEEGRAAADEWDER

B3: dsDNA (DNA1/DNA2), 21 bp (dsDNA)
DNA 1: TGCTTATCAATTTGTTGCACC
DNA 2: GGTGCAACAAATTGATAAGCA
binding result [6]: binds
